Measured values from the DeepSol protein solubility set.

experiment: soluble on expression in E. coli; label from the status in PepcDB or PDB records

Sequence | soluble on expression in E. coli
MAHHHHHHMTMAVDSHDPSVRYLFFEEQRQQKQQKQQVPVDGTSSGSLPLLYSARPACHPVDDVRSAAALRRITEGFLNLDQQMKMWRRHLHRKLGNLESRLSRCESVLLQKKTPVPQPAVVKASTTTYNDIYDGVEDEFKRLHLTVTALREKAAECCRDGQSFFPPKRQGKKGKGEPAGKHAMCDDEDVSIEGGGVFDSHCEHVGVAKRMSPTADTTAVGSGESVGLTPDGAEMPSACLFLGETVVDGDWQHVEGMQPREASCCLYKLQNQSSFQPTPSFSTMTPVSEQKYFAMDSTCRHDWSPFIHEPCRPEKRIVRGGKPATMDKTPTNVPDLRMRSTATTTQEKCCEINESPLVQASSLERRLIYSPETPKRMQGQVSPVPSDAARSASSSTKRGMEIPLSNADSVEHLHNLAEPALSSKPVTNGQKRPDATPSSQHGGAFVDAFASAVAGVPSSSPLYVLPQQIYSSRGNSCDRSSEWDNTEDEEKASESSNEEVLSAVALSMPTVGTVWQRVVSLAHAEQYYDQLSRLNHPPLSMLSSDTLEISELTVQET | not soluble
SNAMSRAKKWVQYFLSHRHVTMELIHKIDEAHYDYKPTPTSMTAKQLATHMLFSFYNFANTAKHGDPSLFRQKIEEPETNLAKLAETYTEKTRQLIESMSDDDFDRTLDLTAIFGTQMSTAQFLQLAMDHEIHHKGQLFVYVRGMGHTDLPLFVKRG | soluble
MEFNLSALGSAPAAEETYDVVIIGGGPAGLTAGIYAGRAQLKTVIVEKGLPGGQIAQTDEVENYPGFPEGISGPELASRMVRQAEKFGARIVMDEVLGLEKAEGGYLVRGYERNYRARAVIVATGANPRRLGVPGEDKFYGRGVSTCATCDGFFYRDKEVVVVGGGDAAVEEGIFLTKFARKVTLVHRRDELRANKVAQKRAFQNPKMHFLFSHVVTEILGEDQVTGVRLKNLKTGEEYVYPTDGVFVFIGHEPNTAFLKGVVELRPDGYIAVRDEVFTSEPGIFAAGDVADPIYRQLTTSVGAGTRAAMMAERYLAEEAEKVKG | soluble
GSHMGGRLEGLTQDLRQLQESEQQLDHLMNICTTQLRLLSEDTDSQRLAYVTCQDLRSIADPAEQMVMVIKAPPETQLQAVDSSENFQISLKSKQGPIDVFLCPEE | soluble
MGSDKIHHHHHHMDNLQFTHAIARIRVLETRLLDRSKIERMIDSSSAEEALKILGETEYLNYMSNVRSPEDYEILLSEELKRLYTLLYSISPERSIIDIMALRYDYHNLKVMLKGKYLEKDLTYLLIPVGTISNDKLKQIFATEFYKELTPLMREALEKAESEYEGDKDPQKIDLILDSYAYKEILSKSEEVNEKFINDYIKMSIDLNNIRALLRAKAQNKHRKFFEAIILDGGTIDKKTLISYESETSDSIANKLSYTPYEKIIRLGLEEYSKTNNISYFEKLSENYIMDFIKKAKQVSFGVEPLIGYIIAKETEIKIIRIIMVGKLNSIAPNIIRERLRDAYV | not soluble
MSEISDAEKVRIASDFIKHAPPGEFNEVFNSVRMLLENDDLLKNKCVNAIAQYNVGQFVPVKLDGVAKQTLITPYNDLGNGRFYDEVSKKSFKYDHVRKEAADLQPHPAESGITEQWRQALQTQLDIYIDDHYAKSGTGVVFARNGVFTICIESHQFQPKNFCNGRWRSEWNVPVGDGKSGSQEMKGKILSQVHYYEDGNVQLFSEKEPVLKVNVSADFDKTAKEIIHAISEEETIYQNAVQENYANMSDTTFKALRRQLPVTRAKMDWNKAQTYRIGQEMK | soluble
MGSDKIHHHHHHMMQALKIDEEIWQMFPEARFEVLVVKGINNQSKADEYYQELLDRAIEKSQKYIANDVFRDNPVVSEWRTAFTKFKKKKGARASIEALLKRVSQGKSLSPINPLVDIYNSISLEYGVPCGGEDLQKMDGTMHLGVAKGGESFRPLGSDEDEPALPGEVIYYDATGAICRCFNWREAQRTMLTEDTTDAVMVIEAINADQAQRAKSAIEKLKELVESKLNATGEHFTLQAQ | not soluble
MRVLVRDLKAHVGQEVELLGFLHWRRDLGRIQFLLLRDRSGVVQVVTGGLKLPLPESALRVRGLVVENAKAPGGLEVQAKEVEVLSPALEPTPVEIPKEEWRANPDTLLEYRYVTLRGEKARAPLKVQAALVRGFRRYLDRQDFTEIFTPKVVRAGAEGGSGLFGVDYFEKRAYLAQSPQLYKQIMVGVFERVYEVAPVWRMEEHHTSRHLNEYLSLDVEMGFIADEEDLMRLEEALLAEMLEEALNTAGDEIRLLGATWPSFPQDIPRLTHAEAKRILKEELGYPVGQDLSEEAERLLGEYAKERWGSDWLFVTRYPRSVRPFYTYPEEDGTTRSFDLLFRGLEITSGGQRIHRYEELLESLKAKGMDPEAFHGYLEVFKYGMPPHGGFAIGAERLTQKLLGLPNVRYARAFPRDRHRLTP | soluble
MTLDHQIINPTLKWSQPAVPSGGPLVQHAHTTLDSDAGLTENPLTKLLAIGKEDDNAQWHLSGSILDVYSGEQGISPINMGLTSASCPSSLPMKREITETDTRALAKERQKKDNHNLIERRRRYNINYRIKELGTLIPKSNDPDMRWNKGTILKASVEYIKWLQKEQQRARELEHRQKKLEQANRRLLLRIQVFIRM | not soluble
MGSDKIHHHHHHMTDHVIAHAFSYRHASRRKPALVDLTLKISRGERVLLLGASGSGKSTLLAAIAGVLADEDGEHSGELQVSGTPGMVLQDPDSQVISSRVGDDVAFGCENMCVPRDQIWPRVTQALAQVGLDLPLDHPTSELSGGQKQRLALAGVIAMGADIVLLDEPTANLDPDGVREVVSNISRAVETTGATMIVVEHRVSTWLDHVDRIIALGPDSRVLADGPARDVIAKHGRELSELGIWVPENDPQLPAALTPTHSDTAIHARELAVGWNQPLGTYGFDIPAGASTVITGANGKGKSTLLLTLAGLLPAHSGRVEVAHNIARGLHTDPLRWKSKELSSRFGFVFQDPEHQFVAATVREEMRVGLHDHNHLARADLLLERLRLDHLAEANPFTLSGGQKRRLSVATILVNTPDVVFLDEPTFGQDRTTFIELVTLLRELTDAGTTVVSITHDELYRRCLGDKEIAL | not soluble
MSLNIHPMWNTYPTLSKELTTTLRLMEQAVQIDNQEIQAAVHDMIHSGGKLLRPAYQLLFSYFGEQRDPKKATALAASIELLHTATLVHDDIVDEADTRRGLPTLRSRFGNSTAVYTGDYLFVCCFKLLSDYSSSLKSIQLNSRSMEKVLTGELGQMDNRYNFEVTIDQYLKNISGKTAELFALSCFVGAYESGTSQRFAKRCGEIGENIGLAFQIIDDILDYTQTADAIGKPVLEDVRQGVYSLPLIYALEANREVLLPLLMKKEALTDEETQEIYRLVHELGGVEKAQELATHYTEKALKEISKLPETKAQAKEQLYEITQTILTREGHHHHHH | soluble
MAHHHHHHMTSGPNNTTNIYDPIEVARANPYFKRNHMGQVTCTLCGIYCPEENNFLKHIAGKTHALQLERRQHKELRHLRLQEEERLNTEAEERARKEEALLALSGGQAGSGAAGGAGALSSAAAAAANARFGTPLYSFRTEHDEVAYRTKVWIEVMFTQAEEGTRPLHRWLSAREQHVEKPPDDYFVYLLFACEGYTTVALKFPAKANRSQPRDVLEEADGSTSEAYWCSWDPLQKVYTLFFALSR | soluble
KFDESALVPEDQFLAQHPGPATIRVSKPNENDGQFMEITVQSLSENVGSLKEKIAGEIQIPANKQKLSGKAGFLKDNMSLAHYNVGAGEILTLSLRER | soluble
VKMIFIFIDGFGIGKEDASVNPLANPELPNINYILNKAGAIPTDACLDVPGLPQSATGQTTIFTGQNASKVLSRHLHGQPTITLKKMIIENNLFKELIKRGFSVTNSNVYRTPYIEKIKDPKERKYRPSVTTVMTLSCGLNLRTVEEYITGDGVYHDIIGEILKNEGYVEELITPREAAQRLYSLSRKYDFTLFEYFVTDILGHKMEMEEAVEKLKILDAFLGELLNLYNEDEDIIFITSDHGNIEDLTVNTHTFNKVPTVILGKIPENVEIEINSLTDIMPTILKIFDAKGEL | soluble
MTTHQDGNADGASATARTVSLDVVVVGAGTSGCYAAATVADAGYDVVIVERKDETEAGHIACGDALKGASDFPDAIPKSQLEPAFTNTDVDHGRFEIPQEDTVLEIPVPGELAVIDRWEYGRCLIEGANDSGVEFHYDTVVQDVLQDDSGRVTGVKAMRKGDPVTYEGDMVIDGAGALSILQDKTDLEAATFDTNVQYSQFCSAYREIIEVDEPVEWDDALVFKPTERSAGYLWYFPRTDTEINAGLGFQMNEEPMELVDDLKRDLQGRSEFEGAEVQDKLGAALPTRRPYDSAVAPGFMAVGDAAGHVNPTTGGGIAGAAYAGTYAAEQAIEAIEAGRTDDEAALWEYNERVMDHFGARYAALDVYNIFTTAYDVDDLMALLAALPGEKLAEALYGGSTSIGLGLKLKMAVKSIGHLGTIRDLYQTKKAADRLLEHYESYPSDRSGFEAWQRERDSIMDDIYEVTGAEPKYLEHHHHHH | soluble
MGLELPLILGTSSVFRREQMERLGIAFQAASPDFDETPMLGESAPQTALRLAEGKARSLTGRFPEALIVGADQVAWCDGRQWGKPMNLANAQKMLMHLSGREIEFYSAIVLLNTVTGRMRRHIDKTVVVMRQLDELHILRYLEREPDAVYCSCALKSEDLGALLIERIESTDPNALIGLPVFRLVDFLKNEGVEVL | not soluble
MSQATARHSVTSSPVSTGQLEEPISRLRVPTEDELPQKLRDIHMRIRKKFGFVPNFLTALSANPGTALRIMAFYEHLFDQSNSHLSASERELIAVVTSVATGCSYCVFNHRPALAAALGDRVLADRIARNHNDVTLAPRERALADLAQKLAATPHSVGSDDFARLRAIGFSEPAILEVLEVSAFFSYGNRLTIALNVLPDPQFFVSAMAGDPLEHHHHHH | not soluble
MAHHHHHHMTATPEMAEYCLRVIAQQISAPDDPSVPLPVIPKEDSACFVTLTTLPQERLRGCIGSLQPGDLKKDMRRLALAAAFQDSRFPKVKEEELPTLRCCFSLLHTFEPCAAWNDWEIGKHGLIADYDGYSATYLPSVAEEQGWDHRETLVSLLEKAGFEKPVTDHVLGKVRLTRYQVSKALKDYKDIIAS | not soluble
MGSDKIHHHHHHMTPSDTNAPVDRLKIGFVLARSFTLSAFALFVDTLRLASDEFDRSGRVLADWDVLGSTRHLITSSCGVQVAPTSDLVEDPSQFQFIVVVGGLLNNEQPIDRETAAFLKKAAAKNVKLIGVCTGSFILAELGLMKSHRTCVSWLHYNAFRERFPDLQVRSDRIFNLDRTRGSCVGGSSAADMAALIVRRHISKDAERNALEVLHIEKARSALAIQTRKPLSIECNDPRIRATLIMMEQHIEGNLPIQDLAAAVGLSRRQLERLFISETKSSPAMIYRRVRLERAKHLLVQSKAPLVEIALEVGFGNASHFAKVFAQTFGQSPTGLRTAIRATL | not soluble
MGDPVEGKGGPQPRGGKKKDADDEKNAWEEGDFIDEKELKGALQLGVLKTADSVALRAGERNGLDMVVEEDVVSQVGALVWDTVAQDWADDLARFVAHAGRQRVNMDDISLLTRRNPDLLRAACELAGVDCPQETSGGTKGKPRKRKKDDVTVAPMLRAAPSAPNSQNAPLLAPIQEEDDENDDDDEITILDDQILHTPQQKSYSKKAKFSEEEAPSSRKRISTSTPKTTAERTLKFPDEITPIRQPNDLQEIVVFNRANLSAIEEEEQQDSFDAFGTTGGNDSSSKTITNTSSLLRQAEEHRSSIVEPTKDRIEKERLDRLVPDDEEFENASVDSFDNFNAEPDPAPAPALAPVPEKRTSVFSKKICSFDFDDDDGDDSFDEPVVVVAEVPKLPVQQQKTPKASGSESKKKPEKRPESSTPSVFSKKNKTIQLDDHDSFDDFDFGI | not soluble
